US20110263454A1, “Methods of Identifying Functional Characteristics of Promoters, Transcription Modifying Proteins and Transcription Modulating Agents” (Salk Institute for Biological Studies, priority 2008, published 2011)

B1: TR2: Testicular Orphan Nuclear Receptor 2 (NR2C1), cDNA driver (protein, UniProt P13056 1-603, looked up)
Nuclear receptor subfamily 2 …: MATIEEIAHQIIEQQMGEIVTEQQTGQKIQIVTALDHNTQGKQFILTNHDGSTPSKVILARQDSTPGKVFLTTPDAAGVNQLFFTTPDLSAQHLQLLTDNSPDQGPNKVFDLCVVCGDKASGRHYGAVTCEGCKGFFKRSIRKNLVYSCRGSKDCIINKHHRNRCQYCRLQRCIAFGMKQDSVQCERKPIEVSREKSSNCAASTEKIYIRKDLRSPLTATPTFVTDSESTRSTGLLDSGMFMNIHPSGVKTESAVLMTSDKAESCQGDLSTLANVVTSLANLGKTKDLSQNSNEMSMIESLSNDDTSLCEFQEMQTNGDVSRAFDTLAKALNPGESTACQSSVAGMEGSVHLITGDSSINYTEKEGPLLSDSHVAFRLTMPSPMPEYLNVHYIGESASRLLFLSMHWALSIPSFQALGQENSISLVKAYWNELFTLGLAQCWQVMNVATILATFVNCLHNSLQQDKMSTERRKLLMEHIFKLQEFCNSMVKLCIDGYEYAYLKAIVLFSPDHPSLENMEQIEKFQEKAYVEFQDYITKTYPDDTYRLSRLLLRLPALRLMNATITEELFFKGLIGNIRIDSVIPHILKMEPADYNSQIIGHSI
B2: TR4: Testicular Orphan Nuclear Receptor 4 (NR2C2), cDNA driver (protein, UniProt P49116 1-596, looked up)
Nuclear receptor subfamily 2 …: MTSPSPRIQIISTDSAVASPQRIQIVTDQQTGQKIQIVTAVDASGSPKQQFILTSPDGAGTGKVILASPETSSAKQLIFTTSDNLVPGRIQIVTDSASVERLLGKTDVQRPQVVEYCVVCGDKASGRHYGAVSCEGCKGFFKRSVRKNLTYSCRSNQDCIINKHHRNRCQFCRLKKCLEMGMKMESVQSERKPFDVQREKPSNCAASTEKIYIRKDLRSPLIATPTFVADKDGARQTGLLDPGMLVNIQQPLIREDGTVLLATDSKAETSQGALGTLANVVTSLANLSESLNNGDTSEIQPEDQSASEITRAFDTLAKALNTTDSSSSPSLADGIDTSGGGSIHVISRDQSTPIIEVEGPLLSDTHVTFKLTMPSPMPEYLNVHYICESASRLLFLSMHWARSIPAFQALGQDCNTSLVRACWNELFTLGLAQCAQVMSLSTILAAIVNHLQNSIQEDKLSGDRIKQVMEHIWKLQEFCNSMAKLDIDGYEYAYLKAIVLFSPDHPGLTSTSQIEKFQEKAQMELQDYVQKTYSEDTYRLARILVRLPALRLMSSNITEELFFTGLIGNVSIDSIIPYILKMETAEYNGQITGASL
B3: Erb: Estrogen Receptor β (NR3A2, ERb), cDNA driver (protein, UniProt Q92731 1-530, looked up)
Estrogen receptor beta: MDIKNSPSSLNSPSSYNCSQSILPLEHGSIYIPSSYVDSHHEYPAMTFYSPAVMNYSIPSNVTNLEGGPGRQTTSPNVLWPTPGHLSPLVVHRQLSHLYAEPQKSPWCEARSLEHTLPVNRETLKRKVSGNRCASPVTGPGSKRDAHFCAVCSDYASGYHYGVWSCEGCKAFFKRSIQGHNDYICPATNQCTIDKNRRKSCQACRLRKCYEVGMVKCGSRRERCGYRLVRRQRSADEQLHCAGKAKRSGGHAPRVRELLLDALSPEQLVLTLLEAEPPHVLISRPSAPFTEASMMMSLTKLADKELVHMISWAKKIPGFVELSLFDQVRLLESCWMEVLMMGLMWRSIDHPGKLIFAPDLVLDRDEGKCVEGILEIFDMLLATTSRFRELKLQHKEYLCVKAMILLNSSMYPLVTATQDADSSRKLAHLLNAVTDALVWVIAKSGISSQQQSMRLANLLMLLSHVRHASNKGMEHLLNMKCKNVVPVYDLLLEMLNAHVLRGCKSSITGSECSPAEDSKSKEGSQNPQSQ
B4: ERR2: Estrogen Related Receptor β (NR3B2, ERRb), cDNA driver (protein, UniProt O95718 1-433, looked up)
Steroid hormone receptor ERR2: MSSDDRHLGSSCGSFIKTEPSSPSSGIDALSHHSPSGSSDASGGFGLALGTHANGLDSPPMFAGAGLGGTPCRKSYEDCASGIMEDSAIKCEYMLNAIPKRLCLVCGDIASGYHYGVASCEACKAFFKRTIQGNIEYSCPATNECEITKRRRKSCQACRFMKCLKVGMLKEGVRLDRVRGGRQKYKRRLDSESSPYLSLQISPPAKKPLTKIVSYLLVAEPDKLYAMPPPGMPEGDIKALTTLCDLADRELVVIIGWAKHIPGFSSLSLGDQMSLLQSAWMEILILGIVYRSLPYDDKLVYAEDYIMDEEHSRLAGLLELYRAILQLVRRYKKLKVEKEEFVTLKALALANSDSMYIEDLEAVQKLQDLLHEALQDYELSQRHEEPWRTGKLLLTLPLLRQTAAKAVQHFYSVKLQGKVPMHKLFLEMLEAKV
B5: ERR3: Estrogen Related Receptor γ (NR3B3, ERRg), cDNA driver (protein, UniProt P62508 1-458, looked up)
Estrogen-related receptor …: MDSVELCLPESFSLHYEEELLCRMSNKDRHIDSSCSSFIKTEPSSPASLTDSVNHHSPGGSSDASGSYSSTMNGHQNGLDSPPLYPSAPILGGSGPVRKLYDDCSSTIVEDPQTKCEYMLNSMPKRLCLVCGDIASGYHYGVASCEACKAFFKRTIQGNIEYSCPATNECEITKRRRKSCQACRFMKCLKVGMLKEGVRLDRVRGGRQKYKRRIDAENSPYLNPQLVQPAKKPYNKIVSHLLVAEPEKIYAMPDPTVPDSDIKALTTLCDLADRELVVIIGWAKHIPGFSTLSLADQMSLLQSAWMEILILGVVYRSLSFEDELVYADDYIMDEDQSKLAGLLDLNNAILQLVKKYKSMKLEKEEFVTLKAIALANSDSMHIEDVEAVQKLQDVLHEALQDYEAGQHMEDPRRAGKMLMTLPLLRQTSTKAVQHFYNIKLEGKVPMHKLFLEMLEAKV

These molecules were tested on hMyoD promoter (assay: NHR-promoter luciferase screen, hMyoD promoter). Conditions: MyoD promoter reporter; co-transfected HR, without or with its ligand.
Format: cell-based, human
In short: (§1)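 CV-1 cells were co-transfected with 50 ng NHR (homodimer or NHR/RXR heterodimer), 100 ng promoter-luciferase construct and 50 ng LacZ. Luciferase was normalized to LacZ and to a no-NHR/no-ligand control.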

Row | Molecule | Luc. act., normalized to lacZ
1 | B1 | 83.1
2 | B2 | 213.9
3 | B3 | 50.6
4 | B4 | 164.8
5 | B5 | 129.6

Same assay, conditions: MyoD promoter reporter; co-transfected HR, without or with its ligand; relative to control

Row | Molecule | Normalized Luc. act., normalized to control
6 | B1 | 1.3
7 | B2 | 3.4
8 | B3 | 0.8
9 | B4 | 2.6
10 | B5 | 2.0

Same assay, conditions: hMyoD promoter-luciferase, CV-1 cells, NHR +/- ligand, control = 1.00

Row | Molecule | luciferase activity normalized to lacZ activity and to a control, hMyoD
11 | B1 | 1.31
12 | B2 | 3.38
13 | B3 | 0.80
14 | B4 | 2.60
15 | B5 | 2.05

The molecules below were run on mPer1 promoter (assay: NHR-promoter luciferase screen, mPer1 promoter). Conditions: Per1 promoter reporter; co-transfected HR, with or without its ligand.
Format: cell-based, mouse
In short: as §1

Row | Molecule | Luc. act., normalized to lacZ
16 | B1 | 103.1
17 | B2 | 225.6
18 | B3 | 79.1
19 | B4 | 328.2
20 | B5 | 226.8

Same assay, conditions: Per1 promoter reporter; co-transfected HR, with or without its ligand; relative to control

Row | Molecule | Normalized Luc. act., normalized to control
21 | B1 | 0.7
22 | B2 | 1.6
23 | B3 | 0.5
24 | B4 | 2.3
25 | B5 | 1.6

Same assay, conditions: mPer1 promoter-luciferase, CV-1 cells, NHR +/- ligand, control = 1.00

Row | Molecule | luciferase activity normalized to lacZ activity and to a control, mPer1
26 | B1 | 0.72
27 | B2 | 1.57
28 | B3 | 0.55
29 | B4 | 2.28
30 | B5 | 1.58

Each molecule was assayed on mUCP2 promoter (assay: NHR-promoter luciferase screen, mUCP2 promoter). Conditions: mUCP2 promoter reporter; co-transfected HR, with or without its ligand.
Format: cell-based, mouse
In short: as §1

Row | Molecule | Luc. act., normalized to lacZ
31 | B1 | 208.9
32 | B2 | 199.0
33 | B3 | 114.4
34 | B4 | 185.1
35 | B5 | 193.4

Same assay, conditions: mUCP2 promoter reporter; co-transfected HR, with or without its ligand; relative to control

Row | Molecule | Normalized Luc. act., normalized to control
36 | B1 | 1.9
37 | B2 | 1.8
38 | B3 | 1.0
39 | B4 | 1.7
40 | B5 | 1.8

Same assay, conditions: mUCP2 promoter-luciferase, CV-1 cells, NHR +/- ligand, control = 1.00

Row | Molecule | luciferase activity normalized to lacZ activity and to a control, mUCP2
41 | B1 | 1.90
42 | B2 | 1.81
43 | B3 | 1.04
44 | B4 | 1.68
45 | B5 | 1.76

The molecules below were run on MCP-1 promoter (assay: NHR-promoter luciferase screen, MCP-1 promoter). Conditions: MCP-1 promoter reporter; HR without or with its ligand; relative to control.
Format: cell-based
In short: as §1

Row | Molecule | Normalized Luc. act., normalized to control
46 | B1 | 2.9
47 | B2 | 2.1
48 | B3 | 1.4
49 | B4 | 8.8
50 | B5 | 4.6

Same assay, conditions: MCP-1 promoter reporter; hormone receptor (HR) without or with its ligand

Row | Molecule | Luc. act., normalized to lacZ
51 | B1 | 311.2
52 | B2 | 229.9
53 | B3 | 146.9
54 | B4 | 946.7
55 | B5 | 487.3

Same assay, conditions: transcription factor +/- ligand; control = 1.00

Row | Molecule | mMCP-1 promoter reporter activity
56 | B1 | 2.91
57 | B2 | 2.15
58 | B3 | 1.37
59 | B4 | 8.84
60 | B5 | 4.55

These molecules were tested on hCYP3A4 promoter (assay: NHR-promoter luciferase screen, hCYP3A4 promoter). Conditions: CYP3A4 promoter; HR/ligand component.
Format: cell-based, human
In short: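 Luciferase reporter read-out after co-expression in CV-1 cells of V5H6-tagged receptor (alone or with RXR), the promoter construct and LacZ. Values are luciferase/LacZ relative to a control lacking NHR or ligand; orphan receptors tested ligand-free.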

Row | Molecule | Luc. act., normalized to lacZ | Normalized Luc. act., normalized to control
61 | B1 | 2.0 | 0.4
62 | B2 | 7.7 | 1.7
63 | B3 | 6.0 | 1.3
64 | B4 | 15.5 | 3.5
65 | B5 | 4.5 | 1.0

Same assay, conditions: transcription factor +/- ligand; control = 1.00

Row | Molecule | hCYP3A4 promoter reporter activity
66 | B1 | 0.44
67 | B2 | 1.74
68 | B3 | 1.35
69 | B4 | 3.49
70 | B5 | 1.02

The molecules below were run on hPPARg1 promoter (assay: NHR-promoter luciferase screen, hPPARg1 promoter). Conditions: PPARG1 promoter; hormone receptor with or without its ligand.
Format: cell-based, human
In short: as §1

Row | Molecule | Luc. act., normalized to lacZ
71 | B1 | 45.5
72 | B2 | 66.2
73 | B3 | 45.3
74 | B4 | 59.1
75 | B5 | 63.7

Same assay, conditions: PPARG1 promoter; hormone receptor with or without its ligand; relative to control

Row | Molecule | Normalized Luc. act., normalized to control
76 | B1 | 0.7
77 | B2 | 1.0
78 | B3 | 0.7
79 | B4 | 0.9
80 | B5 | 0.9

Same assay, conditions: Table 6d; luciferase activity relative to control (control = 1.00)

Row | Molecule | Results of assays of transcription factor (+/- ligand) with hPPARg1
81 | B1 | 0.66
82 | B2 | 0.96
83 | B3 | 0.66
84 | B4 | 0.86
85 | B5 | 0.92
